# Assay results reported in publication PMC4959569.
# B1: EWS-FLI1: DON (protein)
# parent chain: MASTDYSTYSQAAAQQGYSAYTAQPTQGYAQTTQAYGQQSYGTYGQPTDVSYTQAQTTATYGQTAYATSYGQPPTGYTTPTAPQAYSQPVQGYGTGAYDTTTATVTTTQASYAAQSAYGTQPAYPAYGQQPAATAPTRPQDGNKPTETSQPQSSTGGYNQPSLGYGQSNYSYPQVPGSYPMQPVTAPPSYPPTSYSSTQPTSYDQSSYSQQNTYGQPSSYGQQSSYGQQSSYGQQPPTSYPPQTGSYSQAPSQYSQQSSSYGQQSSFRQDHPSSMGVYGQESGGFSGPGENRSMSGPDNRGRGRGGFDRGGMSRGGRGGGRGGMGSAGERGGFNKPGGPMDEGPDLDLGPPVDPDEDSDNSAIYVQGLNDSVTLDDLADFFKQCGVVKMNKRTGQPMIHIYLDKETGKPKGDATVSYEDPPTAKAAVEWFDGKDFQGSKLKVSLARKKPPMNSMRGGLPPREGRGMPPPLRGGPGGPGGPGGPMGRMGGRGGDRGGFPPRGPRGSRGNPSGGGNVQHRAGDWQCPNPGCGNQNFAWRTECNQCKAPKPEGFLPPPFPPPGGDRGRGGPGGMRGGRGGLMDRGGPGGMFRGGRGGDRGGFRGGRGMDRGGFGGGRRGGPGGPPGPLMEQMGGRRGGRGGPGKMDKGEHRQERRDRPY
# B2: EWS-FLI1: STZ (protein)
# parent chain: B1 parent chain
# Legend:
# [1] = Western blot densitometry, antibody 7.3; conditions: glycan lost; control: untreated SK-N-MC cells
# [2] = Q-PCR normalised to EWS-FLI1 protein level; conditions: control: mock treated SK-N-MC cells
Protein,"expression_or_secretion, percent_of_wt [1]",other: transcriptional repression of target gene ([2]; glycan lost),"other: transcriptional activation of target gene, fold_change ([2]; glycan gained)",other: transcriptional repression of target gene ([2]; glycan gained)
B1,decreases,no change,–,–
B2,–,–,no change,no change
